Data: article PMC7367873, “Dissecting the sequence determinants for dephosphorylation by the catalytic subunits of phosphatases PP1 and PP2A” (Nature Communications, 2020)

Experiments:
[1] = test system: GFP-14-3-3β and its binding proteins; assay: GFP-14-3-3β co-IP with LC-MS/MS label-free quantification, untreated versus PP1c-treated; set-up: species or system human; settings: log2 difference; pairwise comparison PP1 vs untreated, label-free quantification, 3 replicates each
GFP-14-3-3β = GFP-14-3-3β co-IP with LC-MS/MS, untreated GFP-14-3-3β versus GFP control (14-3-3 interactome); type: binding, human; settings: log2 difference; pairwise comparison untreated vs GFP, label-free quantification, 3 replicates each

Molecule	Difference (log2), PP1 vs untreated [1]	Difference (log2), untreated vs GFP (GFP-14-3-3β)
P4HA1 (protein, UniProt P13674 18-534, looked up) Prolyl 4-hydroxylase subunit …: HPGFFTSIGQMTDLIHTEKDLVTSLKDYIKAEEDKLEQIKKWAEKLDRLTSTATKDPEGFVGHPVNAFKLMKRLNTEWSELENLVLKDMSDGFISNLTIQRQYFPNDEDQVGAAKALLRLQDTYNLDTDTISKGNLPGVKHKSFLTAEDCFELGKVAYTEADYYHTELWMEQALRQLDEGEISTIDKVSVLDYLSYAVYQQGDLDKALLLTKKLLELDPEHQRANGNLKYFEYIMAKEKDVNKSASDDQSDQKTTPKKKGVAVDYLPERQKYEMLCRGEGIKMTPRRQKKLFCRYHDGNRNPKFILAPAKQEDEWDKPRIIRFHDIISDAEIEIVKDLAKPRLRRATISNPITGDLETVHYRISKSAWLSGYENPVVSRINMRIQDLTGLDVSTAEELQVANYGVGGQYEPHFDFARKDEPDAFKELGTGNRIATWLFYMSDVSAGGATVFPEVGASVWPKKGTAVFWYNLFASGEGDYSTRHAACPVLVGNKWVSNKWLHERGQEFRRPCTLSELE	1.3164	-0.8349
MAP7 (protein, UniProt Q14244 2-749, looked up) Ensconsin: AELGAGGDGHRGGDGAVRSETAPDSYKVQDKKNASSRPASAISGQNNNHSGNKPDPPPVLRVDDRQRLARERREEREKQLAAREIVWLEREERARQHYEKHLEERKKRLEEQRQKEERRRAAVEEKRRQRLEEDKERHEAVVRRTMERSQKPKQKHNRWSWGGSLHGSPSIHSADPDRRSVSTMNLSKYVDPVISKRLSSSSATLLNSPDRARRLQLSPWESSVVNRLLTPTHSFLARSKSTAALSGEAASCSPIIMPYKAAHSRNSMDRPKLFVTPPEGSSRRRIIHGTASYKKERERENVLFLTSGTRRAVSPSNPKARQPARSRLWLPSKSLPHLPGTPRPTSSLPPGSVKAAPAQVRPPSPGNIRPVKREVKVEPEKKDPEKEPQKVANEPSLKGRAPLVKVEEATVEERTPAEPEVGPAAPAMAPAPASAPAPASAPAPAPVPTPAMVSAPSSTVNASASVKTSAGTTDPEEATRLLAEKRRLAREQREKEERERREQEELERQKREELAQRVAEERTTRREEESRRLEAEQAREKEEQLQRQAEERALREREEAERAQRQKEEEARVREEAERVRQEREKHFQREEQERLERKKRLEEIMKRTRRTEATDKKTSDQRNGDIAKGALTGGTEVSALPCTTNAPGNGKPVGSPHVVTSHQSKVTVESTPDLEKQPNENGVSVQNENFEEIINLPIGSKPSRLDVTNSESPEIPLNPILAFDDEGTLGPLPQVDGVQTQQTAEVI	1.312	-0.1668
CAPRIN1 (protein, UniProt Q14444 2-709, looked up) Caprin-1: PSATSHSGSGSKSSGPPPPSGSSGSEAAAGAGAAAPASQHPATGTGAVQTEAMKQILGVIDKKLRNLEKKKGKLDDYQERMNKGERLNQDQLDAVSKYQEVTNNLEFAKELQRSFMALSQDIQKTIKKTARREQLMREEAEQKRLKTVLELQYVLDKLGDDEVRTDLKQGLNGVPILSEEELSLLDEFYKLVDPERDMSLRLNEQYEHASIHLWDLLEGKEKPVCGTTYKVLKEIVERVFQSNYFDSTHNHQNGLCEEEEAASAPAVEDQVPEAEPEPAEEYTEQSEVESTEYVNRQFMAETQFTSGEKEQVDEWTVETVEVVNSLQQQPQAASPSVPEPHSLTPVAQADPLVRRQRVQDLMAQMQGPYNFIQDSMLDFENQTLDPAIVSAQPMNPTQNMDMPQLVCPPVHSESRLAQPNQVPVQPEATQVPLVSSTSEGYTASQPLYQPSHATEQRPQKEPIDQIQATISLNTDQTTASSSLPAASQPQVFQAGTSKPLHSSGINVNAAPFQSMQTVFNMNAPVPPVNEPETLKQQNQYQASYNQSFSSQPHQVEQTELQQEQLQTVVGTYHGSPDQSHQVTGNHQQPPQQNTGFPRSNQPYYNSRGVSRGGSRGARGLMNGYRGPANGFRGGYDGYRPSFSNTPNSGYTQSQFSAPRDYSGYQRDGYQQNFKRGSGQSGPRGAPRGRGGPPRPNRGMPQMNTQQVN	1.323	-0.3406

More lines, main results first:

Difference (log2), PP1 vs untreated [1]	Molecule	Difference (log2), untreated vs GFP (GFP-14-3-3β)
1.303	SLC43A3 (protein, UniProt Q8NBI5 1-491, looked up) Equilibrative nucleobase …: MAGQGLPLHVATLLTGLLECLGFAGVLFGWPSLVFVFKNEDYFKDLCGPDAGPIGNATGQADCKAQDERFSLIFTLGSFMNNFMTFPTGYIFDRFKTTVARLIAIFFYTTATLIIAFTSAGSAVLLFLAMPMLTIGGILFLITNLQIGNLFGQHRSTIITLYNGAFDSSSAVFLIIKLLYEKGISLRASFIFISVCSTWHVARTFLLMPRGHIPYPLPPNYSYGLCPGNGTTKEEKETAEHENRELQSKEFLSAKEETPGAGQKQELRSFWSYAFSRRFAWHLVWLSVIQLWHYLFIGTLNSLLTNMAGGDMARVSTYTNAFAFTQFGVLCAPWNGLLMDRLKQKYQKEARKTGSSTLAVALCSTVPSLALTSLLCLGFALCASVPILPLQYLTFILQVISRSFLYGSNAAFLTLAFPSEHFGKLFGLVMALSAVVSLLQFPIFTLIKGSLQNDPFYVNVMFMLAILLTFFHPFLVYRECRTWKESPSAIA	-0.216
1.284	STT3B (protein, UniProt Q8TCJ2 2-826, looked up) Dolichyl-diphosphooligosacchar …: AEPSAPESKHKSSLNSSPWSGLMALGNSRHGHHGPGAQCAHKAAGGAAPPKPAPAGLSGGLSQPAGWQSLLSFTILFLAWLAGFSSRLFAVIRFESIIHEFDPWFNYRSTHHLASHGFYEFLNWFDERAWYPLGRIVGGTVYPGLMITAGLIHWILNTLNITVHIRDVCVFLAPTFSGLTSISTFLLTRELWNQGAGLLAACFIAIVPGYISRSVAGSFDNEGIAIFALQFTYYLWVKSVKTGSVFWTMCCCLSYFYMVSAWGGYVFIINLIPLHVFVLLLMQRYSKRVYIAYSTFYIVGLILSMQIPFVGFQPIRTSEHMAAAGVFALLQAYAFLQYLRDRLTKQEFQTLFFLGVSLAAGAVFLSVIYLTYTGYIAPWSGRFYSLWDTGYAKIHIPIIASVSEHQPTTWVSFFFDLHILVCTFPAGLWFCIKNINDERVFVALYAISAVYFAGVMVRLMLTLTPVVCMLSAIAFSNVFEHYLGDDMKRENPPVEDSSDEDDKRNQGNLYDKAGKVRKHATEQEKTEEGLGPNIKSIVTMLMLMLLMMFAVHCTWVTSNAYSSPSVVLASYNHDGTRNILDDFREAYFWLRQNTDEHARVMSWWDYGYQIAGMANRTTLVDNNTWNNSHIALVGKAMSSNETAAYKIMRTLDVDYVLVIFGGVIGYSGDDINKFLWMVRIAEGEHPKDIRESDYFTPQGEFRVDKAGSPTLLNCLMYKMSYYRFGEMQLDFRTPPGFDRTRNAEIGNKDIKFKHLEEAFTSEHWLVRIYKVKAPDNRETLDHKPRVTNIFPKQKYLSKKTTKRKRGYIKNKLVFKKGKKISKKTV	-0.7683
